The series has as its system 75 aa long oligopeptide with the correct sequence of amino acids 351-399 of the α2 subunit of the GABAA receptor.

recombinant p42 MAP Kinase (Erk2) (New England Biolabs), sequence (P28482 2-360): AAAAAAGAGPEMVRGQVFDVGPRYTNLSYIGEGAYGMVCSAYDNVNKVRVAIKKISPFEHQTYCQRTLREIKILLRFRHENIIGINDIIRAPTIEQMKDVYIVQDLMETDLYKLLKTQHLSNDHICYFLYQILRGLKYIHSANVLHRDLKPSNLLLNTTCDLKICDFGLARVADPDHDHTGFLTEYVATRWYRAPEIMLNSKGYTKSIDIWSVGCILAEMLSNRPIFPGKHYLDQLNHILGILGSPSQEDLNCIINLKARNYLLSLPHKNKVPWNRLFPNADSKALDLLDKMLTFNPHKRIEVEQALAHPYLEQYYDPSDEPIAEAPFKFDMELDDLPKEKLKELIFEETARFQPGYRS

Consider “recombinant p42 MAP Kinase (Erk2) (New England Biolabs)”, for which the “average share of total phosphorylation at each of the other nine Ser/Thr residues (in vitro kinase assay, ^32P incorporation)” value is reported as “the other nine Ser/Thr residues are phosphorylated at an average of 4% each”; the “incorporation of ^32P as a readout of phosphorylation (in vitro kinase assay)” value is listed as “the construct with the wildtype sequence shows a much higher incorporation of ^32P than the second construct with the mutated T393”; the “share of total phosphorylation at T393 (in vitro kinase assay, ^32P incorporation)” value was 63% of total phosphorylation occurs at the putative Erk2 site.

Values taken from patent US20100242127.
